Laboratory results published in the Human Domainome abundance scans (Beltran et al. 2025).
± gives the uncertainty stated by the source.

B1: Receptor-interacting serine/threonine-protein kinase 2, residues 438 to 518; numbered along this chain, O43353 (parent)
chain: QWIQSKREDIVNQMTEACLNQSLDALLSRDLIMKEDYELVSTKPTRTSKVRQLLDTTDIQGEEFAKVIVQKLKDNKQMGLQ

Variants of: B1
Experiment: abundance fitness (aPCA) (normalised: wild type 0, dead -1); higher = more abundant; growth selection in yeast, the domain comes from the species named
Conditions: Homo sapiens

| Variant | abundance fitness |
| --- | --- |
| QWIQSKREDIVNQMTEACLNQSLDALLSRDLIMKEDYELVSTKPTRTSKVRQLLDTTDIQGEEFAKVIVQKQKDNKQMGLQ [L72Q] | -0.451 ± 0.15 |
| QWIQSKREDIVNQMTEACLNQSLDALLSRDLIMKEDYELVSTKPTRTSKVRQLLDTTDIQGEEFAKVIVQKRKDNKQMGLQ [L72R] | -0.633 ± 0.12 |
| QWIQSKREDIVNQMTEACLNQSLDALLSRDLIMKEDYELVSTKPTRTSKVRQLLDTTDIQGEEFAKVIVQKSKDNKQMGLQ [L72S] | -0.587 ± 0.072 |
| QWIQSKREDIVNQMTEACLNQSLDALLSRDLIMKEDYELVSTKPTRTSKVRQLLDTTDIQGEEFAKVIVQKTKDNKQMGLQ [L72T] | -0.448 ± 0.13 |
| QWIQSKREDIVNQMTEACLNQSLDALLSRDLIMKEDYELVSTKPTRTSKVRQLLDTTDIQGEEFAKVIVQKVKDNKQMGLQ [L72V] | -0.394 ± 0.097 |
| QWIQSKREDIVNQMTEACLNQSLDALLSRDLIMKEDYELVSTKPTRTSKVRQLLDTTDIQGEEFAKVIVQKYKDNKQMGLQ [L72Y] | -0.695 ± 0.21 |
| QWIQSKREDIVNQMTEACLNQSLDALLSRDLIMKEDYELVSTKPTRTSKVRQLLDTTDIQGEEFAKVIVQKLADNKQMGLQ [K73A] | -0.119 ± 0.062 |
| QWIQSKREDIVNQMTEACLNQSLDALLSRDLIMKEDYELVSTKPTRTSKVRQLLDTTDIQGEEFAKVIVQKLDDNKQMGLQ [K73D] | -0.269 ± 0.13 |
| QWIQSKREDIVNQMTEACLNQSLDALLSRDLIMKEDYELVSTKPTRTSKVRQLLDTTDIQGEEFAKVIVQKLEDNKQMGLQ [K73E] | 0.072 ± 0.099 |
| QWIQSKREDIVNQMTEACLNQSLDALLSRDLIMKEDYELVSTKPTRTSKVRQLLDTTDIQGEEFAKVIVQKLFDNKQMGLQ [K73F] | -0.609 ± 0.49 |
| QWIQSKREDIVNQMTEACLNQSLDALLSRDLIMKEDYELVSTKPTRTSKVRQLLDTTDIQGEEFAKVIVQKLGDNKQMGLQ [K73G] | -0.132 ± 0.056 |
| QWIQSKREDIVNQMTEACLNQSLDALLSRDLIMKEDYELVSTKPTRTSKVRQLLDTTDIQGEEFAKVIVQKLHDNKQMGLQ [K73H] | -0.319 ± 0.17 |
| QWIQSKREDIVNQMTEACLNQSLDALLSRDLIMKEDYELVSTKPTRTSKVRQLLDTTDIQGEEFAKVIVQKLLDNKQMGLQ [K73L] | -0.064 ± 0.053 |
| QWIQSKREDIVNQMTEACLNQSLDALLSRDLIMKEDYELVSTKPTRTSKVRQLLDTTDIQGEEFAKVIVQKLMDNKQMGLQ [K73M] | -0.107 ± 0.093 |
| QWIQSKREDIVNQMTEACLNQSLDALLSRDLIMKEDYELVSTKPTRTSKVRQLLDTTDIQGEEFAKVIVQKLNDNKQMGLQ [K73N] | -0.191 ± 0.22 |
| QWIQSKREDIVNQMTEACLNQSLDALLSRDLIMKEDYELVSTKPTRTSKVRQLLDTTDIQGEEFAKVIVQKLPDNKQMGLQ [K73P] | -0.633 ± 0.071 |
| QWIQSKREDIVNQMTEACLNQSLDALLSRDLIMKEDYELVSTKPTRTSKVRQLLDTTDIQGEEFAKVIVQKLQDNKQMGLQ [K73Q] | -0.003 ± 0.076 |

| Variant | abundance fitness |
| --- | --- |
| QWIQSKREDIVNQMTEACLNQSLDALLSRDLIMKEDYELVSTKPTRTSKVRQLLDTTDIQGEEFAKVIVQKLRDNKQMGLQ [K73R] | 0.011 ± 0.051 |
| QWIQSKREDIVNQMTEACLNQSLDALLSRDLIMKEDYELVSTKPTRTSKVRQLLDTTDIQGEEFAKVIVQKLSDNKQMGLQ [K73S] | 0.001 ± 0.061 |
| QWIQSKREDIVNQMTEACLNQSLDALLSRDLIMKEDYELVSTKPTRTSKVRQLLDTTDIQGEEFAKVIVQKLTDNKQMGLQ [K73T] | -0.01 ± 0.075 |
| QWIQSKREDIVNQMTEACLNQSLDALLSRDLIMKEDYELVSTKPTRTSKVRQLLDTTDIQGEEFAKVIVQKLVDNKQMGLQ [K73V] | -0.191 ± 0.057 |
| QWIQSKREDIVNQMTEACLNQSLDALLSRDLIMKEDYELVSTKPTRTSKVRQLLDTTDIQGEEFAKVIVQKLYDNKQMGLQ [K73Y] | -0.039 ± 0.16 |
| QWIQSKREDIVNQMTEACLNQSLDALLSRDLIMKEDYELVSTKPTRTSKVRQLLDTTDIQGEEFAKVIVQKLKANKQMGLQ [D74A] | -0.076 ± 0.07 |
| QWIQSKREDIVNQMTEACLNQSLDALLSRDLIMKEDYELVSTKPTRTSKVRQLLDTTDIQGEEFAKVIVQKLKCNKQMGLQ [D74C] | -0.246 ± 0.13 |
| QWIQSKREDIVNQMTEACLNQSLDALLSRDLIMKEDYELVSTKPTRTSKVRQLLDTTDIQGEEFAKVIVQKLKENKQMGLQ [D74E] | -0.085 ± 0.15 |
| QWIQSKREDIVNQMTEACLNQSLDALLSRDLIMKEDYELVSTKPTRTSKVRQLLDTTDIQGEEFAKVIVQKLKFNKQMGLQ [D74F] | -0.486 ± 0.14 |
| QWIQSKREDIVNQMTEACLNQSLDALLSRDLIMKEDYELVSTKPTRTSKVRQLLDTTDIQGEEFAKVIVQKLKGNKQMGLQ [D74G] | -0.336 ± 0.058 |
| QWIQSKREDIVNQMTEACLNQSLDALLSRDLIMKEDYELVSTKPTRTSKVRQLLDTTDIQGEEFAKVIVQKLKHNKQMGLQ [D74H] | 0.046 ± 0.096 |
| QWIQSKREDIVNQMTEACLNQSLDALLSRDLIMKEDYELVSTKPTRTSKVRQLLDTTDIQGEEFAKVIVQKLKINKQMGLQ [D74I] | -0.261 ± 0.069 |
| QWIQSKREDIVNQMTEACLNQSLDALLSRDLIMKEDYELVSTKPTRTSKVRQLLDTTDIQGEEFAKVIVQKLKKNKQMGLQ [D74K] | -0.644 ± 0.2 |
| QWIQSKREDIVNQMTEACLNQSLDALLSRDLIMKEDYELVSTKPTRTSKVRQLLDTTDIQGEEFAKVIVQKLKMNKQMGLQ [D74M] | -0.399 ± 0.11 |
| QWIQSKREDIVNQMTEACLNQSLDALLSRDLIMKEDYELVSTKPTRTSKVRQLLDTTDIQGEEFAKVIVQKLKNNKQMGLQ [D74N] | -0.345 ± 0.29 |
| QWIQSKREDIVNQMTEACLNQSLDALLSRDLIMKEDYELVSTKPTRTSKVRQLLDTTDIQGEEFAKVIVQKLKPNKQMGLQ [D74P] | -0.512 ± 0.053 |
| QWIQSKREDIVNQMTEACLNQSLDALLSRDLIMKEDYELVSTKPTRTSKVRQLLDTTDIQGEEFAKVIVQKLKQNKQMGLQ [D74Q] | -0.248 ± 0.11 |
